Assay results reported in PMC10002499.

Legend:
[1] = molecular target: dysferlin canonical C2A domain, construct 3 (aa 19-134) (Rattus norvegicus); experiment: SPR; Biacore 3000, 25 °C; His6 fusion ligand amine-coupled on a CM5 chip (dysferlin C2 domain as ligand, partner as analyte, per Figure 2 'ligand:analyte'); analyte typically 0–320 nM, including reversal of ligand and analyte; 1:1 Langmuir model; Ca2+ level of the KD values of Table 1 not given
[2] = molecular target: dysferlin C2F domain (Rattus norvegicus); experiment: as above
Sequence of dysferlin C2F domain (Rattus norvegicus) (Q9ESD7 1805-1953): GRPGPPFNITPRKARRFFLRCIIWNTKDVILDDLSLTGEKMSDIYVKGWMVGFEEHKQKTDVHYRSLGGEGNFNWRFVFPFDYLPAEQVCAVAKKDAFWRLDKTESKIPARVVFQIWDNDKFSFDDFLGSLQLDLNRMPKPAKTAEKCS

[3] = molecular target: annexin A2 (amino terminus) construct (rat); experiment: SPR; 100 uM Ca2+; settings: domain or fragment
Sequence of annexin A2 (amino terminus) construct (rat) (Q07936 2-339): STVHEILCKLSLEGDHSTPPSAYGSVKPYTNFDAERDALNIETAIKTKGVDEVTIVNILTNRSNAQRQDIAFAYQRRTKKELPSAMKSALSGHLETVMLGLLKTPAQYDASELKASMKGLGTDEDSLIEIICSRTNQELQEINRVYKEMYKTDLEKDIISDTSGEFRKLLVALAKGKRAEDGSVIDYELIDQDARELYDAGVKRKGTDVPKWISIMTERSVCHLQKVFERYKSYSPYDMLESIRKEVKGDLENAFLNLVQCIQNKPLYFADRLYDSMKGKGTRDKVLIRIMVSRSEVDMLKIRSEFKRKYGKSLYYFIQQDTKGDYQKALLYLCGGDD

[4] = molecular target: annexin A2 (amino terminus) construct (rat); experiment: SPR; without Ca2+; settings: domain or fragment
[5] = molecular target: annexin A2 (amino terminus) construct (rat); experiment: SPR; 0 added Ca2+; settings: domain or fragment

Sequence of dysferlin canonical C2A domain, construct 3 (aa 19-134) (Rattus norvegicus) (Q9ESD7 other isoform, or with tags, fused parts or gaps): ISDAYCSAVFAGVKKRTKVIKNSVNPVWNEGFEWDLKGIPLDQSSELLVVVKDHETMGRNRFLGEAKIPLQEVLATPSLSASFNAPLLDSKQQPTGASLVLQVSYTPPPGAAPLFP
Sequence of caveolin-3 construct (domain or fragment) (P51638 whole entry, the tested form may be a part): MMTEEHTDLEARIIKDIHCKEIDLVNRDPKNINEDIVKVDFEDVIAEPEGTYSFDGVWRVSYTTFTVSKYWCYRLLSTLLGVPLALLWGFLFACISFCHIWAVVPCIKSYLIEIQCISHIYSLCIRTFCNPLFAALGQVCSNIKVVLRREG
Sequence of annexin A1 construct (domain or fragment) (P07150 2-346): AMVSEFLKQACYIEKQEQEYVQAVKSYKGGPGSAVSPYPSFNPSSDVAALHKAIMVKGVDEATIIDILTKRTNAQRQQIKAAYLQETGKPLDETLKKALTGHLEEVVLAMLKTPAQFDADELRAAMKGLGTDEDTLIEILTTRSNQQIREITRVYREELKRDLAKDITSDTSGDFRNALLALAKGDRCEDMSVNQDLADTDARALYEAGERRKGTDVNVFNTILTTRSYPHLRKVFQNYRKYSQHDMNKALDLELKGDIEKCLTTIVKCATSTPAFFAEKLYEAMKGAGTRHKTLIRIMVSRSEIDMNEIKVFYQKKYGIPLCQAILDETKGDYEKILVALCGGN
Sequence of calpain-3 construct (domain or fragment) (P16259 whole entry, the tested form may be a part): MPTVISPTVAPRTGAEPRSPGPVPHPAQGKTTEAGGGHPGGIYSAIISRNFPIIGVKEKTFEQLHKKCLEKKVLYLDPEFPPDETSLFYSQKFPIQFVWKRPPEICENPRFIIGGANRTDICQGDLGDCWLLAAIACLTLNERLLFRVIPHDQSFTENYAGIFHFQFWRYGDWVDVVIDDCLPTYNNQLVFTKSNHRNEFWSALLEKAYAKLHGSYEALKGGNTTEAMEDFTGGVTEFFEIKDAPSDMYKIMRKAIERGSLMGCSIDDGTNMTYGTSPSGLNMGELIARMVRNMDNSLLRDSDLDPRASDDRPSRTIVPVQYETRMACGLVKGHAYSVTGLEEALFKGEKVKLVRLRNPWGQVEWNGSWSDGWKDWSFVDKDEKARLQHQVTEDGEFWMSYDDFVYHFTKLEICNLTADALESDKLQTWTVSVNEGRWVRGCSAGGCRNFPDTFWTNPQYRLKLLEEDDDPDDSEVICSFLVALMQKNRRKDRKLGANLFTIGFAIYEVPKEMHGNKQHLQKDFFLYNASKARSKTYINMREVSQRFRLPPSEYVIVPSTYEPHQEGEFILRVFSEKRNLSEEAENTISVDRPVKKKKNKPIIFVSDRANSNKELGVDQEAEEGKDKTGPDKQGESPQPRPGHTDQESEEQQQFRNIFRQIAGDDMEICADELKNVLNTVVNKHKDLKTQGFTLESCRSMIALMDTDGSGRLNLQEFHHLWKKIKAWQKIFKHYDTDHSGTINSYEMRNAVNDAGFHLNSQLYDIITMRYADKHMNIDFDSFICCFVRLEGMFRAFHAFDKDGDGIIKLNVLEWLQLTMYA
Sequence of syntaxin-4 construct (domain or fragment) (Q08850 whole entry, the tested form may be a part): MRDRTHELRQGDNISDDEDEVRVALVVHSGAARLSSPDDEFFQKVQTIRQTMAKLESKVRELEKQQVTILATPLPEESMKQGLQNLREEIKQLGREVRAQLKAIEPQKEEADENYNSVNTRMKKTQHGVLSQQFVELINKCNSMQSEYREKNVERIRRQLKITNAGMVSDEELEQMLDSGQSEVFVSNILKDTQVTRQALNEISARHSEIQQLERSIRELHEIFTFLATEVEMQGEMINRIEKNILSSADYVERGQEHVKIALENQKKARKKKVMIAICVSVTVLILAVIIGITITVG
Sequence of mitsugumin-53 construct (domain or fragment) (A0JPQ4 whole entry, the tested form may be a part): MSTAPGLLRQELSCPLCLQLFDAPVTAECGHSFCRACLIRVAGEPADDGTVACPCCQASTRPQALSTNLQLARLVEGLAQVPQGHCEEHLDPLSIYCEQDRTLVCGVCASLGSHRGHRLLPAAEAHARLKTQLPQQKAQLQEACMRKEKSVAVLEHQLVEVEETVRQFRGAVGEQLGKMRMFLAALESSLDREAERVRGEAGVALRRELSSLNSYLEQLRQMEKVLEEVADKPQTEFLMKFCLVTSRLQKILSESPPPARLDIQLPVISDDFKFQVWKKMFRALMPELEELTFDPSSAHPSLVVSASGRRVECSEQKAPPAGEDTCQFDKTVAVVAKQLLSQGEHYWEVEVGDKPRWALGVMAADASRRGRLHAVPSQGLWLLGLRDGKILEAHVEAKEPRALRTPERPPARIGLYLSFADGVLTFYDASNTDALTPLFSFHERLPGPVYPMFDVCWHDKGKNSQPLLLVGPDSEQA

For “AHNAK1 construct, the final 500 amino acids (domain or fragment)”, the Kd [1] was 380 nM.
“affixin (beta-parvin) construct (domain or fragment)” showed a Kd [2] of 400 nM and a Kd [1] of 41000 nM.
“annexin A1 construct (domain or fragment)” was tested, and the Kd [2] was 330 nM and the Kd [1] was 25 nM.
“calpain-3 construct (domain or fragment)” showed a Kd [2] of 2.2 nM and a Kd [1] of 1200 nM.
For “caveolin-3 construct (domain or fragment)”, the Kd [2] was 110 nM and the Kd [1] was 33 nM.
Substance “dysferlin canonical C2A domain, construct 1 (aa 1-152 plus 24 aa)” has a Kd [3] of 23.6 nM and a Kd [4] of 101 nM.
In the case of “dysferlin canonical C2A domain, construct 3 (aa 19-134)”, the Kd [5] is reported as 190 nM.
“mitsugumin-53 construct (domain or fragment)” showed a Kd [1] of 470 nM.
Substance “syntaxin-4 construct (domain or fragment)” has a Kd [2] of 130 nM and a Kd [1] of 4400 nM.
